Laboratory results from publication PMC4972647 (Nature structural & molecular biology, 2016).

T1: GST-APPBP1 (human, UniProt Q13564 1-534)
T1 sequence: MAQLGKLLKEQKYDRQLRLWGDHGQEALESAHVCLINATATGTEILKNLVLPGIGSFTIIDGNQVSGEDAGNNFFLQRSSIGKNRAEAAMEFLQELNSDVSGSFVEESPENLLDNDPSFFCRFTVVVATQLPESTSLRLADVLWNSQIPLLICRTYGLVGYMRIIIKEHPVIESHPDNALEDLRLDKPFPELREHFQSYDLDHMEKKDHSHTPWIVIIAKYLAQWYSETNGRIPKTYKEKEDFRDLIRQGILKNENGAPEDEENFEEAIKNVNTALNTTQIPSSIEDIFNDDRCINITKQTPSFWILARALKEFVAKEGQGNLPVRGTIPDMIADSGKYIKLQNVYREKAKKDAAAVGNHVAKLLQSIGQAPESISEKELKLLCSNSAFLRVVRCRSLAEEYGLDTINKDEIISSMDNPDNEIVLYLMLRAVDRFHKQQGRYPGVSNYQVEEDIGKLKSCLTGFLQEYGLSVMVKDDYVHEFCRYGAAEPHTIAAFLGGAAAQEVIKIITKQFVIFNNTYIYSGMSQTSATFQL


Tests used:
Experiment in all cases: BLI
[1] = target: NEDD8-conjugated Ubc12 (Ubc12(C111S)^N8-His) (human) (UniProt P61081)
[2] = target: N-terminal GST-tagged GlyRS (human)
GST-APPBP1 = target: T1, GST-APPBP1

Sequence of purified recombinant human NEDD8 (Q15843 1-76): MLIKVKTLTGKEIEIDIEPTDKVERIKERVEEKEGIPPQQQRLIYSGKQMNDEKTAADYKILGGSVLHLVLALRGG

Row | Kd [1] | Kd [2] | Molecule | also measured
1 | 39.5 nM | – | G526R GlyRS (enzyme) | –
2 | – | 4.09 nM | NEDD8-conjugated Ubc12 (Ubc12(C111S)^N8-His) (from UniProt P61081;Q15843) (complex) | –
3 | 3.21 nM | – | Tag-free wild type human GlyRS (enzyme) | –
4 | – | 126 nM | purified recombinant human NEDD8 (from UniProt Q15843 1-76) (natural protein) | –
5 | – | 488 nM | purified recombinant human Ubc12 (from UniProt P61081 1-183) (enzyme) | –
6 | 27 nM | – | Δ84-93 GlyRS (F84-L93 replaced by GGG) (from UniProt P41250-2 94-685) (enzyme) | –
7 | 4.32 nM | – | ΔInsertion1 GlyRS (F147-F224 replaced by GSGSGG) (from UniProt P41250-2 225-685) (enzyme) | –
8 | – | – | ABD (V541-E685) of human GlyRS (domain or fragment) VREGDEQRTFFSFPAVVAPFKCSVLPLSQNQEFMPFVKELSEALTRHGVSHKVDDSSGSIGRRYARTDEIGVAFGVTIDFDTVNKTPHTATLRDRDSMRQIRAEISELPSIVQDLANGNITWADVEARYPLFEGQETGKKETIEE | binding result (GST-APPBP1): binds
